Literature values in patent US10294487B2, “Methods and compositions involving ALS variants with native substrate preference” (E I DU PONT DE NEMOURS AND COMPANY, priority 2012, dated 2019).

B1: R199E: Site-directed mutation in A. thaliana ALS; position R199, 180 (protein, UniProt P17597 56-670, looked up, variant R199E)
Acetolactate synthase, …: SSSPSSISAVLNTTTNVTTTPSPTKPTKPETFISRFAPDQPRKGADILVEALERQGVETVFAYPGGASMEIHQALTRSSSIRNVLPRHEQGGVFAAEGYARSSGKPGICIATSGPGATNLVSGLADALLDSVPLVAITGQVPREMIGTDAFQETPIVEVTRSITKHNYLVMDVEDIPRIIEEAFFLATSGRPGPVLVDVPKDIQQQLAIPNWEQAMRLPGYMSRMPKPPEDSHLEQIVRLISESKKPVLYVGGGCLNSSDELGRFVELTGIPVASTLMGLGSYPCDDELSLHMLGMHGTVYANYAVEHSDLLLAFGVRFDDRVTGKLEAFASRAKIVHIDIDSAEIGKNKTPHVSVCGDVKLALQGMNKVLENRAEELKLDFGVWRNELNVQKQKFPLSFKTFGEAIPPQYAIKVLDELTDGKAIISTGVGQHQMWAAQFYNYKKPRQWLSSGGLGAMGFGLPAAIGASVANPDAIVVDIDGDGSFIMNVQELATIRVENLPVKVLLLNNQHLGMVMQWEDRFYKANRAHTFLGDPAQEDEIFPNMLLFAAACGIPAARVTKKADLREAIQTMLDTPGPYLLDVICPHQEHVLPMIPSGGTFNDVITEGDGRIKY
B2: F590L: Site-directed mutation in S. cerevisiae ALS; position F578, 559 (protein, UniProt P07342 91-687, looked up, variant F590L)
Acetolactate synthase …: GLTGGQIFNEMMSRQNVDTVFGYPGGAILPVYDAIHNSDKFNFVLPKHEQGAGHMAEGYARASGKPGVVLVTSGPGATNVVTPMADAFADGIPMVVFTGQVPTSAIGTDAFQEADVVGISRSCTKWNVMVKSVEELPLRINEAFEIATSGRPGPVLVDLPKDVTAAILRNPIPTKTTLPSNALNQLTSRAQDEFVMQSINKAADLINLAKKPVLYVGAGILNHADGPRLLKELSDRAQIPVTTTLQGLGSFDQEDPKSLDMLGMHGCATANLAVQNADLIIAVGARFDDRVTGNISKFAPEARRAAAEGRGGIIHFEVSPKNINKVVQTQIAVEGDATTNLGKMMSKIFPVKERSEWFAQINKWKKEYPYAYMEETPGSKIKPQTVIKKLSKVANDTGRHVIVTTGVGQHQMWAAQHWTWRNPHTFITSGGLGTMGYGLPAAIGAQVAKPESLVIDIDGDASFNMTLTELSSAVQAGTPVKILILNNEEQGMVTQWQSLLYEHRYSHTHQLNPDFIKLAEAMGLKGLRVKKQEELDAKLKEFVSTKGPVLLEVEVDKKVPVLPMVAGGSGLDEFINFDPEVERQQTELRHKRTGGKH

How the values were obtained:
ALS [1] = conditions: cited from earlier work
ALS [2] = conditions: pyruvate reaction; cited from earlier work

Molecule | Resistance pattern, I50 fold increase: IEt (ALS [1]; imazethapyr) | Resistance pattern, I50 fold increase: SM (ALS [1]; sulfometuron methyl) | Resistance pattern, I50 fold increase: IM (ALS [1]; imidazolinone(s)) | Resistance pattern, I50 fold increase: SU (ALS [1]; sulfonylurea(s)) | Kinetic parameters: Km (ALS [2]) | Kinetic parameters: kcat (ALS [2])
B1 | IEt, 50 fold | SM, 2 fold | – | – | – | –
B2 | – | – | IM, 60 fold | SUs, 30-300 fold | Km, 30 % wt | kcat, 200 % wt
